Source: patent publication US20250026820A1 (WUHAN YZY BIOPHARMA, published 2025)
Numbering of substitutions follows the chain as printed.

T1: TGFβ2 protein (GenScript Z03429) (human, UniProt P61812 303-414)
T1 construct: also called human TGF-β2
T1 sequence (looked up): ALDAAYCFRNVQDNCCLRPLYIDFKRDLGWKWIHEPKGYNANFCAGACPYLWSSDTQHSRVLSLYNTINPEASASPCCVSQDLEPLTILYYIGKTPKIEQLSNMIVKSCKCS

T2: TGFβ3 protein (GenScript Z03430) (human, UniProt P10600 301-412)
T2 construct: also called human TGF-β3
T2 sequence (looked up): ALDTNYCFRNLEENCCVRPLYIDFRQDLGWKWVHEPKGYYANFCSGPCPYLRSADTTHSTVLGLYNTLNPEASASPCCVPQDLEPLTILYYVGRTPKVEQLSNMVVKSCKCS

B1: B1B8 anti-TGFβ single domain heavy-chain antibody (variable region, linker peptide, human IgG1 heavy chain constant region) (Fc fusion)
heavy: EVQVVESGGGLVQPGGSLTLSCVASGFAFSFTPMRWVRQAPGKGLEWVSSISIRGDTTDYADSVKGRFTISRDNAKNTLYLQMNSLKPEDTAVYYCSRGSSISTSTERTQGTQVTVSS
notes: not shown: linker peptide (GGGGS)n, n=1, 2 or 3; human IgG1 heavy chain constant region, GenBank No. AK303185.1
B2: B2A1 anti-TGFβ single domain heavy-chain antibody (variable region, linker peptide, human IgG1 heavy chain constant region) (Fc fusion)
heavy: QVQLVESGGGLVQPGGSLRLSCAASGITFSHYDMAWFRQAPEKQRELVALITSGGKTAYADSVKGRFAISRDNAKNTVYLQMNSLKAGDTAVYYCNAHWVLTSQYWGQGTQVTVSS
notes: as for B1
B3: B2C9 anti-TGFβ single domain heavy-chain antibody (variable region, linker peptide, human IgG1 heavy chain constant region) (Fc fusion)
heavy: EVQVVESGGGLVQPGGSLRLSCAASASVFSWSVMGWFRQAPGKQRELVAISSGDRETYADSVKGRFTISRDNAKNTVYLQMDTLKPEDTAVYFCNAYVPVGESRGDYWGQGTQVTVSS
notes: as for B1
B4: B3F1 anti-TGFβ single domain heavy-chain antibody (variable region, linker peptide, human IgG1 heavy chain constant region) (Fc fusion)
heavy: QLQLVESGGGLVQPGGSLTLSCAASGFTFSLYPMSWVRQAPGKGLEWVSVIGSDGGTKHYSDSVKGRFAISRDNAKNTLYLQMNSLKPEDTAVYYCAEGDSRYVRGRTRGQGTQVTVSS
notes: as for B1
B5: B3C5 anti-TGFβ single domain heavy-chain antibody (variable region, linker peptide, human IgG1 heavy chain constant region) (Fc fusion)
heavy: B4 heavy with L31H, H59I, S71A
notes: as for B1
B6: B2F6 anti-TGFβ single domain heavy-chain antibody (variable region, linker peptide, human IgG1 heavy chain constant region) (Fc fusion)
heavy: EVQLVESGGGLVQPGGSLRLSCAASGFTFSYYVASWYRQAPGKERELVATTFPPDGSPHYADSVKGRFAISRDNAKNTVFLQMDSLKSEDTAVYYCNARRVEGHGIYWGQGTQVTVSS
notes: as for B1
B7: B2A9 anti-TGFβ single domain heavy-chain antibody (variable region, linker peptide, human IgG1 heavy chain constant region) (Fc fusion)
heavy: QLQLVESGGGLVQPGGSLRLSCTASGSTFEIYPIYAMAWFRQTPGKQRELVALTTDVKTNYADSVKGRFTISRDNAKNTVYLQMNMLQPEDTAVYVCNVGVVRGGLQNYWGQGTQVTVSS
notes: as for B1
B8: B1B8 heavy chain single-domain antibody (VHH)
VHH: B1 heavy
notes: Tested as crude supernatant of IPTG-induced E. coli TG1 carrying the pComb3XSS clone
B9: B2C2 heavy chain single-domain antibody (VHH)
VHH: QLQLVESGGGLVQPGGSLRLSCAGSGIAFSRVTMAWSRQAPGKQRELVALITDGNRSAYVDSVKGRFTISRDNTKKTMSLQMNDLKPEDTAVYYCVATDWVPTRRDYWGQGTQVTVSS
notes: as for B8
B10: B2A1 heavy chain single-domain antibody (VHH)
VHH: B2 heavy
notes: as for B8
B11: B1C5 heavy chain single-domain antibody (VHH)
VHH: EVQLVESGGGEVRPGGSLRLSCVVSGFTKDYGAIGWFRQAPGQEREGLGCIARKDGDTWSADSVKGRFTISRDNVRNTVYLQMNALKPEDRGVYYCAGDPSALYGCSDRSSEYQYWGQGTQVTVSS
notes: as for B8
B12: B2C9 heavy chain single-domain antibody (VHH)
VHH: B3 heavy
notes: as for B8
B13: B1F8 heavy chain single-domain antibody (VHH)
VHH: QVQLVESGGGLVQPGGSLRLSCAASGSIFGVFYMGWFRQAPGKQREMVAISTDDRTSYVDSVKGRFTISRDNAKNTLALQMNSLKPEDTAVYFCNLNQLGTDYWGPGTQVTVSS
notes: Tested as crude supernatant of IPTG-induced E. coli TG1 carrying the pComb3XSS clone; also called BIF8
B14: B3F3 heavy chain single-domain antibody (VHH)
VHH: B13 VHH with G16E, A23T, E46D, V59A
notes: as for B8
B15: B1B7 heavy chain single-domain antibody (VHH)
VHH: QVQLVESGGGLVQPGGSLTLSCTASGSMFSFYTMGWYRQATGKQRELVAGISLGGETTYAPSVKDRFTISRDNAKNTVYLQMNSLKPEDTALYNCNAYWGEDYWGQGTQVTVSS
notes: as for B8
B16: B2G8 heavy chain single-domain antibody (VHH)
VHH: QVQLVESGGGLVQPGGSLRLSCAASGISFSYYDMGWFRQAPGKQRELVAIVTSGGRTNYADSVKGRFTISRETAKSTMYLQMNSLKSEDTGVYYCNAHWIVTTDYWGQGTQVTVAS
notes: as for B8
B17: B2A2 heavy chain single-domain antibody (VHH)
VHH: EVQVVESGGAAVQPGESLRLSCAASGSIFNTATMGWFRQAPGKQREMVAIITDGGRTNYADSVKGRFTISRDATKNTVYLQMNSLNPGDTAVYYCNALTIVPRSSIYWGQGTQVTVSS
notes: as for B8
B18: B2H1 heavy chain single-domain antibody (VHH)
VHH: QLQLVESGGGLVQPGESLRLSCAASGIIFSASTMAWFRQAPGKQRELVALITDGDRTNYADSVKGRFTISRDNAENTVYLQMTELKFEDTAVYYCNAFWLKAYWGQGTQVTVSS
notes: as for B8
B19: B3D2 heavy chain single-domain antibody (VHH)
VHH: B4 heavy with A23L, L31H, G56A, T57I, G106N, T108A
notes: as for B8
B20: B3D6 heavy chain single-domain antibody (VHH)
VHH: EVQLVESGGGLVQAGGSLRLSCAASGRSFSSLAVGWFRQPPGKKREIVAAVNWSGTSTYYPDSVKGRFSISRDNTKNTVYLQMNSLKPEDTAVYYCAADPDLRWLKLWGYEYWGQGTQVTVSS
notes: as for B8
B21: B2A9 heavy chain single-domain antibody (VHH)
VHH: B7 heavy
notes: as for B8
B22: B3C5 heavy chain single-domain antibody (VHH)
VHH: B4 heavy with L31H, H59I, S71A
B23: B3F1 heavy chain single-domain antibody (VHH)
VHH: B4 heavy
B24: B2F6 heavy chain single-domain antibody (VHH)
VHH: B6 heavy

Each binder was assayed against T1, TGFβ2 protein (GenScript Z03429) (assay: ELISA; plate coated with human TGF-β2; antibody titrated; HRP anti-human Fc).
Protocol: (§1) A microplate was coated with 2 μL/well of the human TGF-β1/2/3 protein solution, respectively, at 4° C. overnight; the supernatant was discarded, 300 μL of a blocking solution (PBS containing 3% BSA) was added to each well, and the plate was blocked at 37° C. for 2 h; the antibodies were gradiently diluted, and the diluent was PBS containing 1% BSA. For example, the initial concentration of the antibody dilution was 500 nM, and diluted 10-fold to obtain 8 concentration gradients. The diluted antibody was added to the well of the microplate at 200 μL per well, the plate was left to stand and incubated at room temperature for 2 h, and the supernatant was discarded; the plate was washed for 3 times with 200 μL/well PBST (PBS containing 0.1% Tween 20); a diluted HRP-labeled anti-human Fc secondary antibody (SIGMA, A8667) was added, the secondary antibody was used after a 1:20000 dilution, the diluent was PBS containing 1% BSA, the volume was 100 μL/well, and the plate was incubated at room temperature for 1 h; the plate was washed for 5 times with 200 μL/well PBST; a TMB chromogenic solution (BD, 55214) was added at 100 μL/well for color development at 37° C. for 8 min. 2 M HCl stop solution was added at 100 μL/well. After the addition of the stop solution, the 450 nm values were read using a microplate reader within 30 min. Data were analyzed using GraphPad Prism 6.0 software and avidity fitting was performed to give EC50 values.

| Binder | EC50 [nM] |
| --- | --- |
| B1 | 0.464 |
| B2 | 1.07 |
| B3 | 1.42 |
| B4 | 148 |
| B5 | 3.52 |
| B6 | 0.774 |
| B7 | 1.25 |

These binders were tested against T2, TGFβ3 protein (GenScript Z03430) (assay: ELISA; plate coated with human TGF-β3; antibody titrated; HRP anti-human Fc).
Protocol: as §1

| Binder | EC50 [nM] |
| --- | --- |
| B1 | 0.817 |
| B2 | 1.25 |
| B3 | 1.21 |
| B4 | 1.33 |
| B5 | 1.35 |
| B6 | 1.03 |
| B7 | 1.46 |

What follows are binders tested against T3, TGFβ1 protein (GenScript Z03411) (human, UniProt P01137 279-390) (assay: ELISA; plate coated with human TGF-β1; antibody titrated; HRP anti-human Fc).
T3 construct: also called human TGF-β1; TGFβ1 antigen
Protocol: as §1

T3 sequence (P01137 279-390 limits assumed, one chain of several): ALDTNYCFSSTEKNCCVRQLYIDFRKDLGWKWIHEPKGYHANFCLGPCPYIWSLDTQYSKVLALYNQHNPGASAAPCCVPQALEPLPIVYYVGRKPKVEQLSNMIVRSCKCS

| Binder | EC50 [nM] |
| --- | --- |
| B1 | 0.533 |
| B2 | 3.82 |
| B3 | 4.83 |
| B7 | 5.43 |

What follows are binders tested against T3, TGFβ1 protein (GenScript Z03411) (assay: ELISA; plate coated with TGFβ1; E. coli supernatant; HRP anti-VHH).
Protocol: A microplate was coated with 2 μL/well of the TGFβ1 protein solution and BSA, respectively, at 4° C. overnight; the supernatant was discarded, 300 μL of a blocking solution (PBS containing 3% BSA) was added to each well, and the plate was blocked at 37° C. for 2 h; the supernatant collected by centrifugation was added to the well of the microplate at 200 μL per well, the plate was left to stand and incubated at room temperature for 2 h, and the supernatant was discarded; the plate was washed for 3 times with 200 μL/well PBST (PBS containing 0.1% Tween 20); a diluted HRP-labeled anti-VHH secondary antibody (Genscript, A01861) was added, the secondary antibody was used after a 1:10000 dilution, the diluent was PBS containing 1% BSA, the volume was 100 μL/well, and the plate was incubated at room temperature for 1 h; the plate was washed for 5 times with 200 μL/well PBST; a TMB chromogenic solution (BD, 55214) was added at 100 μL/well for color development at 37° C. for 8 min. 2 M HCl stop solution was added at 100 μL/well. After the addition of the stop solution, the 450 nm values were read using a microplate reader within 30 min.

| Binder | OD value of binding to TGFβ1 [OD 450 nm] |
| --- | --- |
| B8 | 1.92 |
| B9 | 2.05 |
| B10 | 1.29 |
| B11 | 2.08 |
| B12 | 1.88 |
| B13 | 1.03 |
| B14 | 2.29 |
| B15 | 1.95 |
| B16 | 1.85 |
| B17 | 1.69 |
| B18 | 2.06 |
| B19 | 1.99 |
| B20 | 1.65 |
| B21 | 1.92 |

The binders below were run against BSA (UniProt P02769) (assay: ELISA; plate coated with BSA (control); E. coli supernatant; HRP anti-VHH).
BSA, sequence (P02769 25-607 limits assumed): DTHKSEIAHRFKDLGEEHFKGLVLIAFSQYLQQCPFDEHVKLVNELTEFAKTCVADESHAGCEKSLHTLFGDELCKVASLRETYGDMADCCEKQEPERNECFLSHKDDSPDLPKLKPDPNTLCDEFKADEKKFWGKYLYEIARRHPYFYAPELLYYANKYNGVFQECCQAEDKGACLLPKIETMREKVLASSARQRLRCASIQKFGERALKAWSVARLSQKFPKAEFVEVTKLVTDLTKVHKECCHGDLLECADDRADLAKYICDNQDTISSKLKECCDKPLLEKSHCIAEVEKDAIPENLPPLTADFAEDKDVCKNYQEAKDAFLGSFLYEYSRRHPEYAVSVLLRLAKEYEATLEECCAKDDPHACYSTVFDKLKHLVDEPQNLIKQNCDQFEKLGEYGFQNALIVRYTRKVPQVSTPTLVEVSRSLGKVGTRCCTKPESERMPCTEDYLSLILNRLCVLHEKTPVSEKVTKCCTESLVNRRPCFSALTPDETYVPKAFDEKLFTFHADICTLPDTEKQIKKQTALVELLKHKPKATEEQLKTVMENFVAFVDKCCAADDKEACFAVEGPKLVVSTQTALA

| Binder | OD value of binding to BSA [OD 450 nm] |
| --- | --- |
| B8 | 0.063 |
| B9 | 0.058 |
| B10 | 0.057 |
| B11 | 0.052 |
| B12 | 0.055 |
| B13 | 0.07 |
| B14 | 0.071 |
| B15 | 0.067 |
| B16 | 0.064 |
| B17 | 0.064 |
| B18 | 0.057 |
| B19 | 0.061 |
| B22 | 0.051 |
| B23 | 0.051 |
| B24 | 0.053 |
| B20 | 0.067 |
| B21 | 0.061 |
